Test results: US20180265573A1 (ICAHN SCHOOL OF MEDICINE AT MOUNT SINAI, published 2018)

What was measured:
[1] = biological target: baculovirus-expressed hemagglutinin of influenza virus A/Solomon Islands/06 (H1) (influenza A virus A/Solomon Islands/06 …)
[2] = biological target: baculovirus-expressed hemagglutinin of influenza virus A/California/04/09 (H1) (influenza A virus A/California/04/09 …)
[3] = biological target: T1, hemagglutinin of influenza A virus A/Hong Kong/1/68 (H3) (influenza A virus A/Hong Kong/1/68 (H3), UniProt Q91MA7 17-566); experiment: immunofluorescence on infected, fixed MDCK cells
T1 construct: whole, on cells; also called HK68 (H3)

[4] = biological target: hemagglutinin of influenza A virus A/Puerto Rico/8/34 (influenza A virus A/Puerto Rico/8/34, UniProt P03452 18-565); experiment: cell-based or functional assay

B1: monoclonal antibody GG3 (antibody, V domains shown)
VH: QIQLVQSGPELKKPGETVKISCKASGYTFTNYGMNWVKQAPGKGLKWMGWINIYSGESTYVDDFTGRFAFSLETSASTAYLQINNLKNEDMATYFCARSGDTMITAGRSFFAMDYWGQGTSVTVSS
VL: DIQMTQSPSSLSASLGERVSLTCRASQEISGYLSWLQQKPDGTIKRLIYAASTLDSGVPKRFSGSRSGSDYSLSISSLESEDFADYYCLQYANYPWSFGGGTKLEIK
notes: also called mAb GG3; Mab GG3
- EC50 (read off the curve) [1]: ~0.007 µg/mL
- EC50 (read off the curve) [2]: ~0.01 µg/mL
- binding result [3]: no binding (tested: 5 µg/mL)
- IC50 (read off the curve), plaque reduction neutralization assay [4]: ~1 µg/mL
